Results from paper PMC2753740.

Target: cp283Δ8, cp283 with an eight-amino acid deletion in the loop connecting the native termini (Candida antarctica)
Assay: SEC

stoichiometry N: 3
Substance: cp283Δ8, cp283 with an eight-amino acid deletion in the loop connecting the native termini (enzyme)
